# According to paper PMC7041688 (The Journal of Cell Biology, 2020):
# T1: CHC(1–642)-6xHis (UniProt Q00610 1-642)
# T1 sequence (looked up): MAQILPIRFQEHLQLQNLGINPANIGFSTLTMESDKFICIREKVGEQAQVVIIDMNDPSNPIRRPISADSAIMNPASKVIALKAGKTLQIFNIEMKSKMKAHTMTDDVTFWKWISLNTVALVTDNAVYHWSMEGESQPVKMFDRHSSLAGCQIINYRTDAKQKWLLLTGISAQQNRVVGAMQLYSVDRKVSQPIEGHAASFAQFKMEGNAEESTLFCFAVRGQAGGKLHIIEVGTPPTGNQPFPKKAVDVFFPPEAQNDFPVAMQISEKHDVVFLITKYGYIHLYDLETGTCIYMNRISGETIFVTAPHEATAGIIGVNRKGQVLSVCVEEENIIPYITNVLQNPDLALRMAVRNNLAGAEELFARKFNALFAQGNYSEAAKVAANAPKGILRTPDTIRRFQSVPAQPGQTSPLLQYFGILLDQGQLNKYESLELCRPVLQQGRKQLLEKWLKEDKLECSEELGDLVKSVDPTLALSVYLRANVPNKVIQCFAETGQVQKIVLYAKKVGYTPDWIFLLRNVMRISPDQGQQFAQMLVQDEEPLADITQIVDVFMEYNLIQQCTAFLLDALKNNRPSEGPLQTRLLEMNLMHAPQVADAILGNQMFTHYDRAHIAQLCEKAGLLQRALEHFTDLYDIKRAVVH
# T2: CHC(1–364) (UniProt Q00610 1-364)
# T2 sequence (looked up): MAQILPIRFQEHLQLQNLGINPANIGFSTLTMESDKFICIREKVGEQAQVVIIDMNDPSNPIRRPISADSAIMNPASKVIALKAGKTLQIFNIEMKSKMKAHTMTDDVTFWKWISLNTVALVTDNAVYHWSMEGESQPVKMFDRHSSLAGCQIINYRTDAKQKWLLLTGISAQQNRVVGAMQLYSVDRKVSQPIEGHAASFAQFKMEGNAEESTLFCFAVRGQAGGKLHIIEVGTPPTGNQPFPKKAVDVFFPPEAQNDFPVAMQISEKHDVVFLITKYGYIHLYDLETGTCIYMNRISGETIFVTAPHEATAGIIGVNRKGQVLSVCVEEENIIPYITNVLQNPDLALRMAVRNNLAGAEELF
# T3: GTSE1-GFP (purified) (human, UniProt Q9NYZ3 1-739)
# T3 sequence (looked up): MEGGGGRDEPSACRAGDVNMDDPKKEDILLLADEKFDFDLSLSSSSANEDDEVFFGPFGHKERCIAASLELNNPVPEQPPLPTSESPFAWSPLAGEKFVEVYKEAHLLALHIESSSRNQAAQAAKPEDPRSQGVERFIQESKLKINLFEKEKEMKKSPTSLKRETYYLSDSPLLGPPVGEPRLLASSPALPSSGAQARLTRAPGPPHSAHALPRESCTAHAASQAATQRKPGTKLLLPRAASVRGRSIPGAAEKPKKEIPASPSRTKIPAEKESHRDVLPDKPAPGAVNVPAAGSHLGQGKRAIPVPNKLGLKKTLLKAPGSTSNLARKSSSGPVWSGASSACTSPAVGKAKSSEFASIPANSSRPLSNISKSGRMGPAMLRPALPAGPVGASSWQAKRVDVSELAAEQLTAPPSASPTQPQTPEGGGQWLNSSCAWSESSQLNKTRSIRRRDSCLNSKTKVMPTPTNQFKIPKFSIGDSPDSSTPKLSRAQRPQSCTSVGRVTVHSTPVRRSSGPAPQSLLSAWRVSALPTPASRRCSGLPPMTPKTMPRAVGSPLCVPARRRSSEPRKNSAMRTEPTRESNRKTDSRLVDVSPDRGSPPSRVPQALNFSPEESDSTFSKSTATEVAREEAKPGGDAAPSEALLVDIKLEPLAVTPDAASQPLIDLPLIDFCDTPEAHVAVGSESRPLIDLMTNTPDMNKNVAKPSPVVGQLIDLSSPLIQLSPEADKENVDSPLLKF
# T4: GTSE1 (purified recombinant) (human, UniProt Q9NYZ3 1-739)
# T4 sequence (looked up): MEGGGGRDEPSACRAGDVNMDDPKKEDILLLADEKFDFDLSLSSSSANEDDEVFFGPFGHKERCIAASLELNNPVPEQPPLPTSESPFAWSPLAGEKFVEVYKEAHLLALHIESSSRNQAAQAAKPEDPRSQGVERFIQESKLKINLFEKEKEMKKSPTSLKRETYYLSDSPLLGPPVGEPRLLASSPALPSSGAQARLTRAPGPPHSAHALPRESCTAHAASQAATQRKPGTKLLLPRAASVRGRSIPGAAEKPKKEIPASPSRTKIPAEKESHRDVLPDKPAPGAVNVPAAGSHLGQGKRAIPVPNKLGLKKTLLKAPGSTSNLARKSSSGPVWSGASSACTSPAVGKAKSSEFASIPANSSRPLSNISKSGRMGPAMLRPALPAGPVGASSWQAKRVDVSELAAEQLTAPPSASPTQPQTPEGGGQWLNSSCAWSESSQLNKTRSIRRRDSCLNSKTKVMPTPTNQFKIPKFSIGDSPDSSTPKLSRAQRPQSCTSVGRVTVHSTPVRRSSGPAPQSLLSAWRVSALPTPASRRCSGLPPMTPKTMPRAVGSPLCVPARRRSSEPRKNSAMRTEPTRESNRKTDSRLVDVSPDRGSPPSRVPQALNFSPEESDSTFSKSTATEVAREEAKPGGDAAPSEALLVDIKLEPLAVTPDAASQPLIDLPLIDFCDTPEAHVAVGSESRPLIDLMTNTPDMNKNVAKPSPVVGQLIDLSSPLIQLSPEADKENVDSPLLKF
# Legend:
# CHC(1–642)-6xHis = biological target: T1, CHC(1–642)-6xHis; test: pull-down
# CHC(1–364) = biological target: T2, CHC(1–364); test: crystal structure
# GTSE1-GFP (purified) = biological target: T3, GTSE1-GFP (purified); test: pull-down
# [1] = biological target: T4, GTSE1 (purified recombinant); test: pull-down
binder,measurement,setting,value
"PLAVTPDAASQPLIDLPLIDFCDTPEAHVAVGSESR (domain or fragment, human, UniProt Q9NYZ3 652-687, looked up) [GST-GTSE1-C1]",binding result,CHC(1–642)-6xHis,binds
"GTSE1-C5 (domain or fragment, human) GPLGSLAVTPDAASQPLIDLPLIDFCDTPEAHVAVGSESRPLIDLMTNTPDMNKNVAKPSPVVGQLIDLSSP",binding result,CHC(1–364),binds
"GST-CHC(1–330) (domain or fragment, UniProt Q00610 1-330, looked up) MAQILPIRFQEHLQLQNLGINPANIGFSTLTMESDKFICIREKVGEQAQVVIIDMNDPSNPIRRPISADSAIMNPASKVIALKAGKTLQIFNIEMKSKMKAHTMTDDVTFWKWISLNTVALVTDNAVYHWSMEGESQPVKMFDRHSSLAGCQIINYRTDAKQKWLLLTGISAQQNRVVGAMQLYSVDRKVSQPIEGHAASFAQFKMEGNAEESTLFCFAVRGQAGGKLHIIEVGTPPTGNQPFPKKAVDVFFPPEAQNDFPVAMQISEKHDVVFLITKYGYIHLYDLETGTCIYMNRISGETIFVTAPHEATAGIIGVNRKGQVLSVCVE",binding result,GTSE1-GFP (purified),binds
same,binding result,[1],binds
"GST-CHC(1–330) S2M (domain or fragment, UniProt Q00610 1-330, looked up) MAQILPIRFQEHLQLQNLGINPANIGFSTLTMESDKFICIREKVGEQAQVVIIDMNDPSNPIRRPISADSAIMNPASKVIALKAGKTLQIFNIEMKSKMKAHTMTDDVTFWKWISLNTVALVTDNAVYHWSMEGESQPVKMFDRHSSLAGCLIQNYRTDAKQKWLLLTGISAQQNRVVGAMQLYSVDRKVSQPIEGHAASFAQFKMEGNAEESTLFCFAVRGQAGGKLHIIEVGTPPTGNQPFPKKAVDVFFPPEAQNDFPVAMQISEKHDVVFLITKYGYIHLYDLETGTCIYMNRISGETIFVTAPHEATAGIIGVNRKGQVLSVCVE",binding result,[1],binds
"MTNTPDMNKNVAKPSPVVGQLIDLSSPLIQLSPEADKENVDSPLLKF (domain or fragment, human, UniProt Q9NYZ3 693-739, looked up) [GST-GTSE1-C3]",binding result,CHC(1–642)-6xHis,binds
"MTNTPDMNKNVAKPSPVVGQLIDLSSPAAALSPEADKENVDSPLLKF (domain or fragment, human, UniProt Q9NYZ3 693-739, looked up) [GST-GTSE1-C3 motif E mutant]",binding result,CHC(1–642)-6xHis,binds
"GTSE1-C4 (domain or fragment, human) GPLGSQPLIDLPLIDFCDTPEAHVAVGSESRPLIDLMTNTPDMNKNVAKPSPVVGQLIDLSSPLIQLSPE",binding result,CHC(1–364),binds
